Legend:
[1] = target: T1, human Trophoblast cell surface antigen 2 (TROP2) (human, UniProt P09758 27-274, limits assumed); assay: SPR, TROP2 as analyte
T1 construct: Analyte in the SPR experiments and immunogen; also called human TROP2
T1 sequence: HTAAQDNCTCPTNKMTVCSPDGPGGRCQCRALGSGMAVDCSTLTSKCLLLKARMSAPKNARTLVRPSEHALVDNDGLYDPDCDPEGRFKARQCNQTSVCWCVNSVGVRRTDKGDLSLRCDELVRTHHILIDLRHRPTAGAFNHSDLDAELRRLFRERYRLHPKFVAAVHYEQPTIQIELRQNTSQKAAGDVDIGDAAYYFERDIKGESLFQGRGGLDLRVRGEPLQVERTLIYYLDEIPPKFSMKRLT

[2] = target: T1, human Trophoblast cell surface antigen …; assay: SPR affinity ranking, human TROP2
[3] = target: T2, TROP2 expressed on human cancer cell lines (human, UniProt P09758 27-323); assay: cell-based or functional assay
T2 sequence: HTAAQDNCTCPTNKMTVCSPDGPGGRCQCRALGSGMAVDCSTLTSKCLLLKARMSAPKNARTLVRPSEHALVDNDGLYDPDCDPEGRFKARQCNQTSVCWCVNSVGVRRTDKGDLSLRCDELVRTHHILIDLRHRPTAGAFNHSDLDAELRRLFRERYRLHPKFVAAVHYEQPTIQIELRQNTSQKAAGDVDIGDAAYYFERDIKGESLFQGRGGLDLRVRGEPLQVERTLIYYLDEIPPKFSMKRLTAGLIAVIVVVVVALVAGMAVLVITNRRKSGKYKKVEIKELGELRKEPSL

[4] = target: T2, TROP2 expressed on human cancer cell …; assay: cell-based or functional assay; remark: listed apart in the source
[5] = target: human Trophoblast cell surface antigen 2 (TROP2) (human) (UniProt P09758); assay: SPR, TROP2 as analyte
[6] = target: T2, TROP2 expressed on human cancer cell …; assay: flow cytometry of SKBR3 cells after overnight incubation with the antibody pre-mixed with pHAb-labelled secondary antibody (internalization assay); x axis pHAb-A, y axis Count
Experimental: FACS experiments were performed to verify that antibodies 1B3, 15D9, 15A10, 17B6, and 17D1 were internalized by SKBR3 cells. SKBR3 is a TROP2-expressing human breast carcinoma cell line. Briefly, 1.2×10⁵ SKBR3 cells were seeded into each 12-well plates and cultured overnight. 300 μL of 20 nM control antibody, 1B3, 15D9, 15A10, 17B6, or 17D1 (in DMEM-10) were mixed with 300 μL 60 nM pHAb-labelled secondary antibody for 15 minutes at room temperature in the dark. The labeled antibodies mixtures were added to the SKBR3 cells and incubated overnight. Following overnight incubation, the SKBR3 cells were trypsinized, washed twice with 1% BSA/PBS, and analyzed via flow cytometry.

B1: HC1/LC5 (antibody, human IgG1, kappa, V domains shown)
VH: QVQLVQSGAEVKKPGASVKVSCKASGYTFTDYSINWVRQAPGQGLEWMGVISTYYGDASYNQKFKGRVTMTTDTSTSTAYMELRSLRSDDTAVYYCARYGDGYNQFDYWGQGTMVTVSS
VL: DIQMTQSPSSLSASVGDRVTITCRVSESVDSYGNNFMHWYQQKPGKAPKLLIYRASNLESGVPSRFSGSGSGTDFTFTISSLQPEDIATYYCQQSYEDPYTFGGGTKLEIKR
notes: Humanized anti-TROP2 antibody; also called DP002-HC1LC5
- Kd [1]: 0.0577 nM
- koff [1]: 0.000104 s⁻¹
- kon [1]: 1.81e+06 M⁻¹ s⁻¹
- Kd [2]: 0.107 nM
- koff [2]: 0.000149 s⁻¹
- kon [2]: 1.39e+06 M⁻¹ s⁻¹

B2: HC1/LC1 (antibody, human IgG1, kappa, V domains shown)
VH: QVQLVQSGAEVKKPGASVKVSCKASGYTFTDYSINWVRQAPGQGLEWMGVISTYYGDASYNQKFKGRVTMTTDTSTSTAYMELRSLRSDDTAVYYCARYGDGYNQFDYWGQGTMVTVSS
VL: DIVMTQSPDSLAVSLGERATINCRVSESVDSYGNNFMHWYQQKPGQPPKLLIYRASNLESGVPDRFSGSGSGTDFTLTISSLQAEDVAVYYCQQSYEDPYTFGQGTKLEIKR
notes: Humanized anti-TROP2 antibody; also called DP002-HC1LC1
- Kd [1]: 0.0662 nM
- koff [1]: 0.00013 s⁻¹
- kon [1]: 1.97e+06 M⁻¹ s⁻¹
- IC50 (nM), in vitro cytotoxicity, HCC38 cells [3]: > 100 nM
- IC50 (nM), in vitro cytotoxicity, MDA-MB-468 cells [3]: > 100 nM
- Kd [2]: 0.0645 nM
- koff [2]: 0.000105 s⁻¹
- kon [2]: 1.63e+06 M⁻¹ s⁻¹

B3: HC4/LC5 (antibody, human IgG1, kappa, V domains shown)
VH: QVQLVQSGAEVKKPGSSVKVSCKASGYTFTDYSINWVRQAPGQGLEWMGVISTYYGDASYNQKFKGRVTITADESTSTAYMELSSLRSEDTAVYYCARYGDGYNQFDYWGQGTLVTVSS
VL: DIQMTQSPSSLSASVGDRVTITCRVSESVDSYGNNFMHWYQQKPGKAPKLLIYRASNLESGVPSRFSGSGSGTDFTFTISSLQPEDIATYYCQQSYEDPYTFGGGTKLEIKR
notes: Humanized anti-TROP2 antibody; also called DP002-HC4LC5; DP002HC4LC5
- Kd [1]: 0.0184 nM
- koff [1]: 4.05e-05 s⁻¹
- kon [1]: 2.2e+06 M⁻¹ s⁻¹
- IC50 (nM), in vitro cytotoxicity, BxPC-3 cells [4]: > 100 nM
- IC50 (nM), in vitro cytotoxicity, HCC1954 cells [4]: > 100 nM
- IC50 (nM), in vitro cytotoxicity, NCI-N87 cells [4]: > 100 nM
- Kd [2]: 0.0801 nM
- koff [2]: 0.000138 s⁻¹
- kon [2]: 1.72e+06 M⁻¹ s⁻¹

B4: biosimilar of the anti-TROP2 antibody sacituzumab (antibody, INN chains, looked up, V domains shown)
VH: QVQLQQSGSELKKPGASVKVSCKASGYTFTNYGMNWVKQAPGQGLKWMGWINTYTGEPTYTDDFKGRFAFSLDTSVSTAYLQISSLKADDTAVYFCARGGFGSSYWYFDVWGQGSLVTVSS
VL: DIQLTQSPSSLSASVGDRVSITCKASQDVSIAVAWYQQKPGKAPKLLIYSASYRYTGVPDRFSGSGSGTDFTLTISSLQPEDFAVYYCQQHYITPLTFGAGTKVEIKR
modifications: biosimilar
- Kd [5]: 0.4 nM
- koff [5]: 0.000204 s⁻¹
- kon [5]: 511000 M⁻¹ s⁻¹

B5: HC5/LC1 (antibody, human IgG1, kappa, V domains shown)
VH: EVQLVQSGAEVKKPGESLKISCKGSGYTFTDYSINWVRQMPGKGLEWMGVISTYYGDASYNQKFKGQVTISADKSISTAYLQWSSLKASDTAMYYCARYGDGYNQFDYWGQGTLVTVSS
VL: DIVMTQSPDSLAVSLGERATINCRVSESVDSYGNNFMHWYQQKPGQPPKLLIYRASNLESGVPDRFSGSGSGTDFTLTISSLQAEDVAVYYCQQSYEDPYTFGQGTKLEIKR
notes: Humanized anti-TROP2 antibody
- Kd [2]: 0.147 nM
- koff [2]: 0.000235 s⁻¹
- kon [2]: 1.6e+06 M⁻¹ s⁻¹

B6: HC5/LC4 (antibody, human IgG1, kappa, V domains shown)
VH: EVQLVQSGAEVKKPGESLKISCKGSGYTFTDYSINWVRQMPGKGLEWMGVISTYYGDASYNQKFKGQVTISADKSISTAYLQWSSLKASDTAMYYCARYGDGYNQFDYWGQGTLVTVSS
VL: EIVLTQSPATLSLSPGERATLSCRVSESVDSYGNNFMHWYQQKPGQAPRLLIYRASNLESGIPARFSGSGSGTDFTLTISSLEPEDFAVYYCQQSYEDPYTFGGGTKVEIKR
notes: Humanized anti-TROP2 antibody
- Kd [2]: 0.22 nM
- koff [2]: 0.000299 s⁻¹
- kon [2]: 1.36e+06 M⁻¹ s⁻¹

B7: anti-TROP2 antibody 1B3 (antibody, V domains shown)
VH: QVQLQQSGAELVRPGVSVKISCKGSGYTFTDYSINWVKQSHAKSLEWIGVISTYYGDASYNQKFKGKATMTVDKSSSTAYMELARLTSEDSAIYYCARYGDGYNQFDYWGQGTTLTVSS
VL: DIVLTQSPASLAVSLGQRATISCRVSESVDSYGNNFMHWYQQKPGQPPKLLIYRASNLESGVPARFSGSGSGTDFTLTINPMEADDVATYYCQQSYEDPYTFGGGTKLEIK
notes: Mouse anti-human TROP2 hybridoma antibody
- binding result [6]: binds

B8: anti-TROP2 antibody 17B6 (antibody, V domains shown)
VH: QVQLQQSGAELVRPGVSVKISCKGSGYTFTDYGMNWVKQSHAKSLEWIGVISTFYGDANYNQKFKGKATMTVDKSSSTAYMELARLTSEDSAIYYCARRGNYDSMDYWGQGTSVTVSS
VL: DIVLTQSPVFLAVSLGQRATISCRASESVDSYGNSFMHWYQQKPGQPPKLLIYRASNLESGIPARFSGSGSRTDFTLTINPVEADDVETYYCQQSYEDPPTFGGGTKLEIE
notes: as for B7
- binding result [6]: binds

B9: anti-TROP2 antibody 15A10 (antibody, V domains shown)
VH: EVQLEQSGPGLVQPSQSLSITCTVSGFSLTRYGVHWVRQSPGRSLEWLGVIWSGGNTDYNAAFISRLTITKDNSKSQVFFKMNSLQPNDTGVYYCAREDRYVGEFAYWGQGTLVTVSA
VL: DIVLTQSTASLAVSLGQRATISCRASESVDSYGNSFIHWYQQKPGQPPKLLIYRASNLESGIPARFSGSGSRTDFTLTINPVEADDVATYYCQQSNEDPRTFGGGTKLEIK
notes: as for B7
- binding result [6]: binds

B10: anti-TROP2 antibody 15D9 (antibody, V domains shown)
VH: QVQLQQSGAELVRPGVSVKISCKGSGYTFTDYSIHWVKQSHAKSLEWIGVISSYYGDATYNQKFKGKATMTVDKSSSTAYMELARLTSEDSAIYYCALLGAYNYFDYWGQGTTLTVSS
VL: DIVLTQSPASLAVSLGQRATISCRASESVDSYGNSFMHWYQQKPGQPPKLLVYRASNLESGIPARFSGSGSRTDFTLTINPVEADDVATYYCQQSYEDPPTFGGGTKLEIK
notes: as for B7
- binding result [6]: binds

B11: anti-TROP2 antibody 17D1 (antibody, V domains shown)
VH: QVQLQQSGAELVRPGVSVKISCKGSGYTFTDYSIHWVKQSHAKSLEWIGLISTYYGDATYTQKFKGKATMTVDKSSSTAYMELARLTSEDSAIYYCALLGAYNYFDYWGQGTTLTVSS
VL: DIVLTQSPASLAVSLGQRATISCRASESVDSYGNSFMHWYQQKPGQPPKLLVYRASNLESGIPARFSGSGSRTDFTLTINPVEADDIATYYCQQSYEDPPTFGGGTKLEIK
notes: as for B7
- binding result [6]: binds
